Results on two molecules are retold here after PMC5331858.

Assay [1] deals with CD4-Sho1-SH3-ΔAY (MYTH bait) (S. cerevisiae) (UniProt P40073). Kind of assay: two-hybrid.
Assay [2] concerns the target CD4-Sho1-SH3-I49A (MYTH bait) (S. cerevisiae). Kind of assay: two-hybrid.

Sequence of UniProt P40073 (P40073 298-367, stated change not applied): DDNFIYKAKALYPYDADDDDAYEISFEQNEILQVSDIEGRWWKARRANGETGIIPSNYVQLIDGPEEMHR

As for “Fps1-N (N-terminal soluble domain of Fps1p, NubG MYTH prey) (from UniProt P23900 1-255) (domain or fragment)”, the fold change relative to wildtype Sho1p SH3 (β-galactosidase, Miller units) in assay [1] came out at 0.3 fold; in assay [2] it was 0.2 fold.

B1: NubG-Pbs2 (full-length Pbs2p MYTH prey) (natural protein)
chain: MEDKFANLSLHEKTGKSSIQLNEQTGSDNGSAVKRTSSTSSHYNNINADLHARVKAFQEQRALKRSASVGSNQSEQDKGSSQSPKHIQQIVNKPLPPLPVAGSSKVSQRMSSQVVQASSKSTLKNVLDNQETQNITDVNINIDTTKITATTIGVNTGLPATDITPSVSNTASATHKAQLLNPNRRAPRRPLSTQHPTRPNVAPHKAPAIINTPKQSLSARRGLKLPPGGMSLKMPTKTAQQPQQFAPSPSNKKHIETLSNSKVVEGKRSNPGSLINGVQSTSTSSSTEGPHDTVGTTPRTGNSNNSSNSGSSGGGGLFANFSKYVDIKSGSLNFAGKLSLSSKGIDFSNGSSSRITLDELEFLDELGHGNYGNVSKVLHKPTNVIMATKEVRLELDEAKFRQILMELEVLHKCNSPYIVDFYGAFFIEGAVYMCMEYMDGGSLDKIYDESSEIGGIDEPQLAFIANAVIHGLKELKEQHNIIHRDVKPTNILCSANQGTVKLCDFGVSGNLVASLAKTNIGCQSYMAPERIKSLNPDRATYTVQSDIWSLGLSILEMALGRYPYPPETYDNIFSQLSAIVDGPPPRLPSDKFSSDAQDFVSLCLQKIPERRPTYAALTEHPWLVKYRNQDVHMSEYITERLERRNKILRERGENGLSKNVPALHMGGL
For B1, in assay [1], the fold change relative to wildtype Sho1p SH3 (β-galactosidase, Miller units) turned out to be 0.5 fold.
